pIC50: −log10 of the molar value.
What was measured:
[1] = Glutathione cleavage study; type: in vitro ADME; conditions: Tris buffer with 10 mM glutathione, Glutathione Challenge (10 mM), 100 μM conjugate, Tris pH 7.5, 37° C.
Description: A 20 mM stock of conjugate was prepared in 100% DMSO. The stocks were subsequently diluted in 100 mM Tris, pH 7.5, to yield an intermediate dilution of 500 μM followed by an additional dilution of 1:5 in 100 mM Tris, pH 7.5 to give a final concentration of 100 μM of conjugate. 100 mM glutathione was prepared immediately prior to use in H2O and diluted 1:10 in challenge samples for a final glutathione challenge concentration of 10 mM. Samples were mixed by inversion and incubated at 37° C. for up to 24 hrs. […]
(§1) Samples were thawed and extracted as follows: 8 μL of 25% phosphoric acid followed by 117 μL of 100% acetonitrile/0.1% TFA were added to each sample, mixed and centrifuged at 13000×G for 10 minutes. The supernatant was pipetted into 0.2 mL HPLC vials and placed on a Perkin Elmer Flexar HPLC autosampler. The following table summarizes HPLC conditions:
Data was analyzed by calculating the percentage reduction of compound (area of retention time peak of […] conjugate/area of retention time peak of conjugate at time 0)×100.

[2] = test system: HCT116; experiment: cells; type: cell-based, human; conditions: 96 h
Description: Cells were plated in 96 well black walled-clear bottom plates (Griener), DLD-1 WT cells at 2500 cells per well, FaDu, and HeLa cells at 5000 cells per well, and HCT116 at 3000 cells per well, in growth media containing 10% FBS. Cells were allowed to adhere at room temperature for 60 minutes before returning to a 37 C, 5% CO2 incubator. After 24 hours, media was removed and replaced with fresh growth media containing various drug concentrations. Each drug concentration was added in triplicate. Non-drug treated controls contained growth media only. Cells were returned to the incubator. Ninety-six hours after addition of drug, cells were fixed with 4% paraformaldehyde for 20 minutes and stained with Hoechst at 1 ug/mL. The plates were imaged on a Cytation 5 auto imager (BioTek) and cells were counted using CellProfiler (http://cellprofiler.org). The percent cell growth delay was calculated and data plotted using GraphPad Prism

[3] = Plasma stability studies; type: in vitro ADME; conditions: rat plasma, 100 μM conjugate, 37° C.
Description: A 20 mM stock of conjugate was prepared in 100% DMSO. The stocks were subsequently diluted in 100 mM Tris, pH 7.5 to yield an intermediate dilution of 500 μM and then diluted 1:5 directly into rat plasma to yield a final concentration of 100 μM of conjugate. Samples were mixed by inversion and incubated at 37° C. for up to 24 h. 50 μL samples were aliquoted into siliconized microfuge tubes at time 0, 4, and 24 h and immediately frozen at −80° C.
as §1, with “100% Acetonitrile/0.1%” for “100% acetonitrile/0.1%”, “TFA was” for “TFA were”
Data was analyzed by calculating the percentage reduction of compound (area of retention time peak of incubated conjugate/area of retention time peak of conjugate at time 0)×100.

`CC[C@@]1(O)C(=O)OCc2c1cc1n(c2=O)Cc2c-1nc1cc(F)c(C)c3c1c2[C@@H](NC(=O)O[C@H]1COCC[C@@H]1SSC[C@H](NC(=O)[C@H](Cc1c[nH]c2ccccc12)NC(=O)[C@H](CC(C)C)NC(=O)[C@H](CC(C)C)NC(=O)[C@H](CC(=O)O)NC(=O)[C@H](CC(C)C)NC(=O)[C@H](CC(C)C)NC(=O)[C@H](CC(C)C)NC(=O)[C@@H](NC(=O)[C@H](CC(=O)O)NC(=O)[C@@H](NC(=O)[C@@H]1CCCN1C(=O)[C@H](Cc1ccccc1)NC(=O)[C@H](CC(C)C)NC(=O)[C@H](CC(C)C)NC(=O)[C@H](CC(=O)O)NC(=O)[C@H](CC(C)C)NC(=O)[C@H](Cc1ccc(O)cc1)NC(=O)[C@H](C)NC(=O)[C@H](CCCNC(=N)N)NC(=O)[C@H](Cc1c[nH]c2ccccc12)NC(=O)[C@@H]1CCCN1C(=O)[C@H](CC(N)=O)NC(=O)[C@H](CCC(N)=O)NC(=O)[C@H](CC(=O)O)NC(=O)[C@H](CC(=O)O)NC(=O)[C@H](C)N)[C@@H](C)O)[C@@H](C)O)C(=O)NCC(=O)O)CC3` [Compound 21] gave a remaining at 4 h, 100 µM [1] of 9.5%, a remaining at 24 h, 100 µM [1] of 12.6% and a pIC50 [2] of 8.51. It also gave a remaining at 4 h, 100 µM [3] of 101% and a remaining at 24 h, 100 µM [3] of 98.2%.

`CC[C@@]1(O)C(=O)OCc2c1cc1n(c2=O)Cc2c-1nc1cc(F)c(C)c3c1c2[C@@H](NC(=O)O[C@H]1CCc2ccccc2[C@@H]1SSC[C@H](NC(=O)[C@H](Cc1c[nH]c2ccccc12)NC(=O)[C@H](CC(C)C)NC(=O)[C@H](CC(C)C)NC(=O)[C@H](CC(=O)O)NC(=O)[C@H](CC(C)C)NC(=O)[C@H](CC(C)C)NC(=O)[C@H](CC(C)C)NC(=O)[C@@H](NC(=O)[C@H](CC(=O)O)NC(=O)[C@@H](NC(=O)[C@@H]1CCCN1C(=O)[C@H](Cc1ccccc1)NC(=O)[C@H](CC(C)C)NC(=O)[C@H](CC(C)C)NC(=O)[C@H](CC(=O)O)NC(=O)[C@H](CC(C)C)NC(=O)[C@H](Cc1ccc(O)cc1)NC(=O)[C@H](C)NC(=O)[C@H](CCCNC(=N)N)NC(=O)[C@H](Cc1c[nH]c2ccccc12)NC(=O)[C@@H]1CCCN1C(=O)[C@H](CC(N)=O)NC(=O)[C@H](CCC(N)=O)NC(=O)[C@H](CC(=O)O)NC(=O)[C@H](CC(=O)O)NC(=O)[C@H](C)N)[C@@H](C)O)[C@@H](C)O)C(=O)NCC(=O)O)CC3` [Compound 24] gave a remaining at 4 h, 100 µM [1] of 20.8%, a remaining at 24 h, 100 µM [1] of 4.2% and a pIC50 [2] of 8.47. The remaining at 4 h, 100 µM [3] was 87% and the remaining at 24 h, 100 µM [3] was 87%.

With `CC[C@@]1(O)C(=O)OCc2c1cc1n(c2=O)Cc2c-1nc1cc(F)c(C)c3c1c2[C@@H](NC(=O)O[C@@H]1COCC[C@H]1SSC[C@H](NC(=O)[C@H](Cc1c[nH]c2ccccc12)NC(=O)[C@H](CC(C)C)NC(=O)[C@H](CC(C)C)NC(=O)[C@H](CC(=O)O)NC(=O)[C@H](CC(C)C)NC(=O)[C@H](CC(C)C)NC(=O)[C@H](CC(C)C)NC(=O)[C@@H](NC(=O)[C@H](CC(=O)O)NC(=O)[C@@H](NC(=O)[C@@H]1CCCN1C(=O)[C@H](Cc1ccccc1)NC(=O)[C@H](CC(C)C)NC(=O)[C@H](CC(C)C)NC(=O)[C@H](CC(=O)O)NC(=O)[C@H](CC(C)C)NC(=O)[C@H](Cc1ccc(O)cc1)NC(=O)[C@H](C)NC(=O)[C@H](CCCNC(=N)N)NC(=O)[C@H](Cc1c[nH]c2ccccc12)NC(=O)[C@@H]1CCCN1C(=O)[C@H](CC(N)=O)NC(=O)[C@H](CCC(N)=O)NC(=O)[C@H](CC(=O)O)NC(=O)[C@H](CC(=O)O)NC(=O)[C@H](C)N)[C@@H](C)O)[C@@H](C)O)C(=O)NCC(=O)O)CC3` [Compound 20] the remaining at 4 h, 100 µM [1] was 5.2%, the remaining at 24 h, 100 µM [1] was 8% and the pIC50 [2] was 8.10. It also gave a remaining at 4 h, 100 µM [3] of 98.7% and a remaining at 24 h, 100 µM [3] of 95.8%.
